The values below come from paper PMC4805542.

This series concerns ZF6-KRAB (synthetic construct). Description: EMSA. To be noted: 2.5 uM protein, DNA titrated 130-200 nM; apparent Kd, Scatchard; 6.25 mM MgCl2; 25 mM Hepes pH 7.9, 50 mM KCl, 6.25 mM MgCl2, 1% Nonidet P-40, 5% glycerol; 15 min on ice; 5% PAGE in 0.5x TBE at 4 C.

Take hRHO 65 bp duplex oligonucleotide: the Kd came out at 108 nM.
